What follows are binders tested against T1, c-erbB-2 ECD with a Ser-Gly-His6 C-terminal fusion (UniProt P04626 23-652) (assay: SPR BIAcore).
T1 construct: extracellular domain; Expressed from CHO cells, IMAC purified; coupled to a CM5 chip, coated on plates, or biotinylated with NHS-LC-biotin; also called c-erbB-2 extracellular domain; biotinylated c-erbB-2 ECD
Description: All assays were performed in triplicate. Briefly, […] of radioiodinated sFv was added to 5×10^6 SK-OV cells in the presence of increasing concentrations of unlabeled sFv from the same preparation. After a 30 minute incubation at 20° C., the samples were washed with PBS at 4° C. and centrifuged at 500 g. The amount of labeled sFv bound to the cells was determined by counting the pellets in a gamma counter and the K_a, and K_d were calculated using the EBDA program (V 2.0, G. A. McPherson, 1983). The K_d of all the other isolated sFv were determined using surface plasmon resonance in a BIAcore (Pharmacia). In a BIAcore flow cell, approximately 1400 resonance units (RU) of c-erbB-2 ECD (25 μg/ml in 10 mM sodium acetate, pH 4.5) was coupled to a CM5 sensor chip (Johnsson et al. (1991), supra). Association and dissociation-rates were measured under continuous flow of […] using a concentration range from 50 to 800 nM. Rate constant $kon$ was determined from a plot of (1(dR/dt))/t vs concentration (Karlsson et al. (1991), supra). Rate constant $Hoff$ was determined from the dissociation part of the sensorgram at the highest concentration of sFv analyzed.
Mutants obtained by combining mutations of C6MH3-B1 or C6MH3-B47 with mutations from D library clones (D1, D2, D3, D5, D6). Rate constants $kon$ and $koff$ were measured by SPR in a BIAcore, and the K_d calculated.

Row | Binder | Kd [nM] | Kd (C6.5)/Kd (mut) | Kd (parent)/Kd (mut) | koff [s⁻¹] | kon [M⁻¹ s⁻¹]
1 | C6-9L1 (scFv, C6L1 with the VL CDR3 of C6ML3-9) scFv: QVQLLQSGAELKKPGESLKISCKGSGYSFTSYWIAWVRQMPGKGLEYMGLIYPGDSDTKYSPSFQGQVTISVDKSVSTAYLQWSSLKPSDSAVYFCARHDVGYCSSSNCAKWPEYFQHWGQGTLVTVSSGGGGSGGGGSGGGGSQSVLTQPPSVSGAPGQWVTISCSGSSSNIGNNYVSWYQQLPGTAPKLLIYDNNKRPSGVPDRFSGSQSGTSASLAISGLRSEDEADYYCASWDYTLSGWVFGGGTKLTVLG | 0.33 | 49 | 3 | 0.0003 | 920000
2 | C6-B47D3 (scFv, Combined B47 and D3 mutations on C6ML3-9) scFv: QVQLLQSGAELKKPGESLKISCKGSGYSFTSYWIAWVRQMPGKGLEYMGLIYPGDSDTKYSPSFQGQVTISVDKSVSTAYLQWSSLKPSDSAVYFCARHDVGYCTDRSCAKWPEWLDNWGQGTLVTVSSGGGGSGGGGSGGGGSQSVLTQPPSVSAAPGQKVTISCSGSSSNIGNNYVSWYQQLPGTAPKLLIYGHTNRPAGVPDRFSGSKSGTSASLAISGFRSEDEADYYCASWDYTLSGWVFGGGTKLTVLG | 0.048 | 333 | 2.3 | 3.2e-05 | 660000
3 | C6-B1D5 (scFv, Combined B1 and D5 mutations on C6ML3-9) scFv: QVQLLQSGAELKKPGESLKISCKGSGYSFTSYWIAWVRQMPGKGLEYMGLIYPGDSDTKYSPSFQGQVTISVDKSVSTAYLQWSSLKPSDSAVYFCARHDVGYCTDRTCAKWPEWMQMWGQGTLVTVSSGGGGSGGGGSGGGGSQSVLTQPPSVSAAPGQKVTISCSGSSSNIGNNYVSWYQQLPGTAPKLLIYGHTNRPAGVPDRFSGSKSGTSASLAISGFRSEDEADYYCASWDYTLSGWVFGGGTKLTVLG | 0.035 | 457 | 3.4 | 1.8e-05 | 510000
4 | C6-B1D2 (scFv, Combined B1 and D2 mutations on C6ML3-9) scFv: QVQLLQSGAELKKPGESLKISCKGSGYSFTSYWIAWVRQMPGKGLEYMGLIYPGDSDTKYSPSFQGQVTISVDKSVSTAYLQWSSLKPSDSAVYFCARHDVGYCTDRTCAKWPEWLGVWGQGTLVTVSSGGGGSGGGGSGGGGSQSVLTQPPSVSAAPGQKVTISCSGSSSNIGNNYVSWYQQLPGTAPKLLIYGHTNRPAGVPDRFSGSKSGTSASLAISGFRSEDEADYYCASWDYTLSGWVFGGGTKLTVLG | 0.015 | 1070 | 8 | 1e-05 | 690000
5 | C6-12L1 (scFv, C6L1 with the VL CDR3 of C6ML3-12) scFv: QVQLLQSGAELKKPGESLKISCKGSGYSFTSYWIAWVRQMPGKGLEYMGLIYPGDSDTKYSPSFQGQVTISVDKSVSTAYLQWSSLKPSDSAVYFCARHDVGYCSSSNCAKWPEYFQHWGQGTLVTVSSGGGGSGGGGSGGGGSQSVLTQPPSVSGAPGQWVTISCSGSSSNIGNNYVSWYQQLPGTAPKLLIYDNNKRPSGVPDRFSGSQSGTSASLAISGLRSEDEADYYCAAWDYSRSGWVFGGGTKLTVLG | 0.19 | 84 | 8.4 | 0.00013 | 670000
6 | C6-B47D2 (scFv, Combined B47 and D2 mutations on C6ML3-9) scFv: QVQLLQSGAELKKPGESLKISCKGSGYSFTSYWIAWVRQMPGKGLEYMGLIYPGDSDTKYSPSFQGQVTISVDKSVSTAYLQWSSLKPSDSAVYFCARHDVGYCTDRSCAKWPEWLGVWGQGTLVTVSSGGGGSGGGGSGGGGSQSVLTQPPSVSAAPGQKVTISCSGSSSNIGNNYVSWYQQLPGTAPKLLIYGHTNRPAGVPDRFSGSKSGTSASLAISGFRSEDEADYYCASWDYTLSGWVFGGGTKLTVLG | 0.044 | 364 | 2.5 | 4.3e-05 | 980000
7 | C6-B1D6 (scFv, Combined B1 and D6 mutations on C6ML3-9) scFv: QVQLLQSGAELKKPGESLKISCKGSGYSFTSYWIAWVRQMPGKGLEYMGLIYPGDSDTKYSPSFQGQVTISVDKSVSTAYLQWSSLKPSDSAVYFCARHDVGYCTDRTCAKWPEWMYPWGQGTLVTVSSGGGGSGGGGSGGGGSQSVLTQPPSVSAAPGQKVTISCSGSSSNIGNNYVSWYQQLPGTAPKLLIYGHTNRPAGVPDRFSGSKSGTSASLAISGFRSEDEADYYCASWDYTLSGWVFGGGTKLTVLG | 0.032 | 500 | 3.8 | 1.3e-05 | 410000
8 | C6-B47D5 (scFv, Combined B47 and D5 mutations on C6ML3-9) scFv: QVQLLQSGAELKKPGESLKISCKGSGYSFTSYWIAWVRQMPGKGLEYMGLIYPGDSDTKYSPSFQGQVTISVDKSVSTAYLQWSSLKPSDSAVYFCARHDVGYCTDRSCAKWPEWMQMWGQGTLVTVSSGGGGSGGGGSGGGGSQSVLTQPPSVSAAPGQKVTISCSGSSSNIGNNYVSWYQQLPGTAPKLLIYGHTNRPAGVPDRFSGSKSGTSASLAISGFRSEDEADYYCASWDYTLSGWVFGGGTKLTVLG | 0.063 | 254 | 1.7 | 3.9e-05 | 620000
9 | C6-B1D1 (scFv, Combined B and D library mutations on C6ML3-9) scFv: QVQLLQSGAELKKPGESLKISCKGSGYSFTSYWIAWVRQMPGKGLEYMGLIYPGDSDTKYSPSFQGQVTISVDKSVSTAYLQWSSLKPSDSAVYFCARHDVGYCTDRTCAKWPEWLHVWGQGTLVTVSSGGGGSGGGGSGGGGSQSVLTQPPSVSAAPGQKVTISCSGSSSNIGNNYVSWYQQLPGTAPKLLIYGHTNRPAGVPDRFSGSKSGTSASLAISGFRSEDEADYYCASWDYTLSGWVFGGGTKLTVLG | 0.032 | 500 | 3.8 | 1.5e-05 | 470000
10 | C6-B1D3 (scFv, Combined B1 and D3 mutations on C6ML3-9) scFv: QVQLLQSGAELKKPGESLKISCKGSGYSFTSYWIAWVRQMPGKGLEYMGLIYPGDSDTKYSPSFQGQVTISVDKSVSTAYLQWSSLKPSDSAVYFCARHDVGYCTDRTCAKWPEWLDNWGQGTLVTVSSGGGGSGGGGSGGGGSQSVLTQPPSVSAAPGQKVTISCSGSSSNIGNNYVSWYQQLPGTAPKLLIYGHTNRPAGVPDRFSGSKSGTSASLAISGFRSEDEADYYCASWDYTLSGWVFGGGTKLTVLG | 0.013 | 1230 | 9.2 | 8e-06 | 640000
11 | C6-B47D1 (scFv, Combined B47 and D1 mutations on C6ML3-9) scFv: QVQLLQSGAELKKPGESLKISCKGSGYSFTSYWIAWVRQMPGKGLEYMGLIYPGDSDTKYSPSFQGQVTISVDKSVSTAYLQWSSLKPSDSAVYFCARHDVGYCTDRSCAKWPEWLHVWGQGTLVTVSSGGGGSGGGGSGGGGSQSVLTQPPSVSAAPGQKVTISCSGSSSNIGNNYVSWYQQLPGTAPKLLIYGHTNRPAGVPDRFSGSKSGTSASLAISGFRSEDEADYYCASWDYTLSGWVFGGGTKLTVLG | 0.068 | 235 | 1.6 | 4.8e-05 | 710000
12 | C6-B47D6 (scFv, Combined B47 and D6 mutations on C6ML3-9) scFv: QVQLLQSGAELKKPGESLKISCKGSGYSFTSYWIAWVRQMPGKGLEYMGLIYPGDSDTKYSPSFQGQVTISVDKSVSTAYLQWSSLKPSDSAVYFCARHDVGYCTDRSCAKWPEWMYPWGQGTLVTVSSGGGGSGGGGSGGGGSQSVLTQPPSVSAAPGQKVTISCSGSSSNIGNNYVSWYQQLPGTAPKLLIYGHTNRPAGVPDRFSGSKSGTSASLAISGFRSEDEADYYCASWDYTLSGWVFGGGTKLTVLG | 0.051 | 314 | 2.2 | 3e-05 | 590000

Target: T1, c-erbB-2 ECD with a Ser-Gly-His6 …
Assay: SPR BIAcore
Remark: another data set of the same source

Row | Binder | Kd [nM] | Kd (mutant)/Kd (C6.5) | koff [s⁻¹] | kon [M⁻¹ s⁻¹]
13 | C6.5C100S/C100eS (scFv, C6.5 VH CDR3 scan mutant; Kabat numbering) scFv: QVQLLQSGAELKKPGESLKISCKGSGYSFTSYWIAWVRQMPGKGLEYMGLIYPGDSDTKYSPSFQGQVTISVDKSVSTAYLQWSSLKPSDSAVYFCARHDVGYSSSSNSAKWPEYFQHWGQGTLVTVSSGGGGSGGGGSGGGGSQSVLTQPPSVSAAPGQKVTISCSGSSSNIGNNYVSWYQQLPGTAPKLLIYGHTNRPAGVPDRFSGSKSGTSASLAISGFRSEDEADYYCAAWDDSLSGWVFGGGTKLTVLG | 280 | 17.5 | 0.138 | 500000
14 | C6.5D96A (scFv, C6.5 VH CDR3 scan mutant; Kabat numbering) scFv: QVQLLQSGAELKKPGESLKISCKGSGYSFTSYWIAWVRQMPGKGLEYMGLIYPGDSDTKYSPSFQGQVTISVDKSVSTAYLQWSSLKPSDSAVYFCARHAVGYCSSSNCAKWPEYFQHWGQGTLVTVSSGGGGSGGGGSGGGGSQSVLTQPPSVSAAPGQKVTISCSGSSSNIGNNYVSWYQQLPGTAPKLLIYGHTNRPAGVPDRFSGSKSGTSASLAISGFRSEDEADYYCAAWDDSLSGWVFGGGTKLTVLG | 45 | 2.8 | 0.01 | 220000

From patent publication US6512097
